# Reference: patent US20230381277A1, “HIGH AFFINITY IL-2 RECEPTOR AGONISTS AND IMMUNOSUPPRESSANTS TO ENHANCE IMMUNE TOLERANCE” (Selecta Biosciences, Inc., priority 2022, published 2023)
# B1: ovalbumin (protein, UniProt P01012 2-386, looked up)
# Ovalbumin: GSIGAASMEFCFDVFKELKVHHANENIFYCPIAIMSALAMVYLGAKDSTRTQINKVVRFDKLPGFGDSIEAQCGTSVNVHSSLRDILNQITKPNDVYSFSLASRLYAEERYPILPEYLQCVKELYRGGLEPINFQTAADQARELINSWVESQTNGIIRNVLQPSSVDSQTAMVLVNAIVFKGLWEKAFKDEDTQAMPFRVTEQESKPVQMMYQIGLFRVASMASEKMKILELPFASGTMSMLVLLPDEVSGLEQLESIINFEKLTEWTSSNVMEERKIKVYLPRMKMEEKYNLTSVLMAMGITDVFSSSANLSGISSAESLKISQAVHAAHAEINEAGREVVGSAEAGVDAASVSEEFRADHPFLFCIKHIATNAVLFFGRCVSP
# System: Ovalbumin-specific OTII T cells
# Experiment: Example 5: adoptive transfer of ovalbumin-specific OTII T cells, antigen-specific Treg induction
# Assay type: in vivo
# Conditions: mice with adoptively transferred OTII T cells; starting level ~3%
# Experimental: However, expansion of antigen-specific Treg can be more desirable than expansion of total Treg. The ability of ImmTOR plus antigen combined with IL-2 mutein to induce and/or expand antigen-specific Treg was evaluated. Ovalbumin-specific OTII T cells were adoptively transferred into mice prior to treatment with ovalbumin and ImmTOR and/or IL-2 mutein.
molecule,measurement,value
B1,percentage of Foxp3+ DTII cells,~6%
